Columns and labels:
Assay in all cases: holdup assay
Parameters in all cases: key: below the threshold = too weak to quantify, mostly under pKd 3.1 to 4
Details in all cases: plain residues with an end cap or a label only (N-terminal biotin on a linker: ado-ado)
[1] = target: T1, APBA3_1, O96018
T1 sequence (O96018 389-490, limits assumed, looked up): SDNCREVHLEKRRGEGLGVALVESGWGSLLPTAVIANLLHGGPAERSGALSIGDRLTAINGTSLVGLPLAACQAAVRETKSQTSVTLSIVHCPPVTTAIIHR

[2] = target: T2, CARD11, Q9BXL7
T2 sequence (Q9BXL7 662-765, limits assumed, looked up): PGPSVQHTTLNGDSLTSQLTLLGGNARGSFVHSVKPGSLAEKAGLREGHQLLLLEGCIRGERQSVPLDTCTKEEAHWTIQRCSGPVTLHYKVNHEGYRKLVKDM

[3] = target: T3, DFNB31_1, Q9P202
T3 sequence (Q9P202 135-233, limits assumed, looked up): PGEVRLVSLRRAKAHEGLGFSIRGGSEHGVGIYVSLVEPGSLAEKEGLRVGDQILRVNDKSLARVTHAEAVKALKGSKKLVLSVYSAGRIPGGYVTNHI

[4] = target: DLG2_2, Q15700
DLG2_2, Q15700, sequence (Q15700 189-283): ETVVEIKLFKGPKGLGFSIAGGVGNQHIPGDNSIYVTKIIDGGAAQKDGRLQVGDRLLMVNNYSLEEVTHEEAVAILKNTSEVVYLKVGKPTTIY

[5] = target: DLG4_1, P78352
DLG4_1, P78352, sequence (P78352 62-152): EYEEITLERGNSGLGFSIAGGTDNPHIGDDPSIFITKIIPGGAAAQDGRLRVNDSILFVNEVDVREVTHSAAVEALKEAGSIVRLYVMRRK

[6] = target: FRMPD2_2, Q68DX3
FRMPD2_2, Q68DX3, sequence (Q68DX3 944-1038): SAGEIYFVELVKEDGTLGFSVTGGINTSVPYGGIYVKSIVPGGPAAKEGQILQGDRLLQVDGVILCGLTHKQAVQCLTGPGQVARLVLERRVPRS

[7] = target: GRASP, Q7Z6J2
GRASP, Q7Z6J2, sequence (Q7Z6J2 96-193): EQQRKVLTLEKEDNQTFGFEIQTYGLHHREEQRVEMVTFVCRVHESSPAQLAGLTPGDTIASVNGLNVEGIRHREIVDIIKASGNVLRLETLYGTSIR

[8] = target: GRID2IP_1, A4D2P6
GRID2IP_1, A4D2P6, sequence (A4D2P6 1-87): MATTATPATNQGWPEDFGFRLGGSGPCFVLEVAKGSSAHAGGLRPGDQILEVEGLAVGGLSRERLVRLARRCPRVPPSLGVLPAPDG

[9] = target: T4, GRIP1_3, Q9Y3R0
T4 sequence (Q9Y3R0 247-346, limits assumed, looked up): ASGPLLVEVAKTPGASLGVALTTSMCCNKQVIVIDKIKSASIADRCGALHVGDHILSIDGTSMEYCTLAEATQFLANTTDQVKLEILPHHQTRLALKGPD

[10] = target: GRIP2_4, Q9C0E4
GRIP2_4, Q9C0E4, sequence (Q9C0E4 446-548): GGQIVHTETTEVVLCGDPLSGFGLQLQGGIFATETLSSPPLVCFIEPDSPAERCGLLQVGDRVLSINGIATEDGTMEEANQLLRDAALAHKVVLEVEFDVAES

[11] = target: GRIP2_7, Q9C0E4
GRIP2_7, Q9C0E4, sequence (Q9C0E4 934-1023): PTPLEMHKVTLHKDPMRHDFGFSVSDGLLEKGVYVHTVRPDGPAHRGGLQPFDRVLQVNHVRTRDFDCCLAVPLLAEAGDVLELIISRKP

[12] = target: HTRA1, Q92743
HTRA1, Q92743, sequence (Q92743 360-477): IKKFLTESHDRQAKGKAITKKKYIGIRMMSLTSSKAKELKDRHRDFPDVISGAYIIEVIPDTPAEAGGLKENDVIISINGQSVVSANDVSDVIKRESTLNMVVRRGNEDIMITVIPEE

[13] = target: T5, HTRA4, P83105
T5 sequence (P83105 378-476, limits assumed, looked up): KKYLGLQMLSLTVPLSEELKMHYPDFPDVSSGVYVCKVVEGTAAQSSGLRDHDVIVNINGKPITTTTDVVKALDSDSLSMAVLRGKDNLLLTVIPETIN

[14] = target: Inadl_2, Q8NI35
Inadl_2, Q8NI35, sequence (Q8NI35 238-335): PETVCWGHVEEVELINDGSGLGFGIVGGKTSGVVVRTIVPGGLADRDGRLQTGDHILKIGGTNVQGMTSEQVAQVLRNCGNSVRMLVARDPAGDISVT

[15] = target: Inadl_6, Q8NI35
Inadl_6, Q8NI35, sequence (Q8NI35 1058-1167): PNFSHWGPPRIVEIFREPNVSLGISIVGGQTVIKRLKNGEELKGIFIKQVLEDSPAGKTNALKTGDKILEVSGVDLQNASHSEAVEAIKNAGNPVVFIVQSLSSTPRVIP

[16] = target: LDB3, O75112
LDB3, O75112, sequence (O75112 1-94): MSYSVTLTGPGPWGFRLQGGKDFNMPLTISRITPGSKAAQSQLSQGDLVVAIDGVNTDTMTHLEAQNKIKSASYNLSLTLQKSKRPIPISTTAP

[17] = target: LIMK2, P53671
LIMK2, P53671, sequence (P53671 143-248): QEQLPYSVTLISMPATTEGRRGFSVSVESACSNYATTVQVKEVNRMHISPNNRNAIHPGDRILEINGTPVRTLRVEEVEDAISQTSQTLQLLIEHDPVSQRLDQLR

[18] = target: T6, LIN7C, Q9NUP9
T6 sequence (Q9NUP9 88-185, limits assumed, looked up): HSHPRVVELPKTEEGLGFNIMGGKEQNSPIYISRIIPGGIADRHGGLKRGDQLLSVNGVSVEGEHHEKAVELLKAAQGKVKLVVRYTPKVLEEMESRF

[19] = target: MAGI2_2, Q86UL8
MAGI2_2, Q86UL8, sequence (Q86UL8 410-522): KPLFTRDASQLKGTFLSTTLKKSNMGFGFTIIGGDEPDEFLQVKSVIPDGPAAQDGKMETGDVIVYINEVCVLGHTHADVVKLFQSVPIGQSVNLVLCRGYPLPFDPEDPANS

[20] = target: MAGI2_5, Q86UL8
MAGI2_5, Q86UL8, sequence (Q86UL8 915-1017): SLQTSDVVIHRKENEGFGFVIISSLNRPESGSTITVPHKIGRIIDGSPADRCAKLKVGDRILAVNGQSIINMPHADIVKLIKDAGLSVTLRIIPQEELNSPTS

[21] = target: MAGI3_2, Q5TCQ9
MAGI3_2, Q5TCQ9, sequence (Q5TCQ9 398-503): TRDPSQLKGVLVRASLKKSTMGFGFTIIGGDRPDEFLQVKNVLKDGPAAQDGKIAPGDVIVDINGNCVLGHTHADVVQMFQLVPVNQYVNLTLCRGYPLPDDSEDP

[22] = target: NHERF2_2, Q15599
NHERF2_2, Q15599, sequence (Q15599 142-238): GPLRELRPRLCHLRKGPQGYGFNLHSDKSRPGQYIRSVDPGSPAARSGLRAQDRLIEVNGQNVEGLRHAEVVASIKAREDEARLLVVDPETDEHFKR

[23] = target: T7, NHERF3_3, Q5T2W1
T7 sequence (Q5T2W1 238-333, limits assumed, looked up): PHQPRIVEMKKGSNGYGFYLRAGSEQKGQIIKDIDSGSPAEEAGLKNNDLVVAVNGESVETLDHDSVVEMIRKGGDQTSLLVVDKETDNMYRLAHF

[24] = target: NHERF4_4, Q86UT5
NHERF4_4, Q86UT5, sequence (Q86UT5 464-550): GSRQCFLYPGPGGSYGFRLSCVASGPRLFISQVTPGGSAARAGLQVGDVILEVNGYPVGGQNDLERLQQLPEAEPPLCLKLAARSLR

[25] = target: PARD3_3, Q8TEW0
PARD3_3, Q8TEW0, sequence (Q8TEW0 582-685): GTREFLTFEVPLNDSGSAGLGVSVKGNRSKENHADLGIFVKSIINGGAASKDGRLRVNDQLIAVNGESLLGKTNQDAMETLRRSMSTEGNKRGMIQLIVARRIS

[26] = target: T8, RAPGEF6, Q8TEU7
T8 sequence (Q8TEU7 525-625, limits assumed, looked up): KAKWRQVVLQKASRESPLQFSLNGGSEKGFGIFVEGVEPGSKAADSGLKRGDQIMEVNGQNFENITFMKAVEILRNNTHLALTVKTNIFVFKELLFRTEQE

[27] = target: T9, SHANK1, Q9Y566
T9 sequence (Q9Y566 658-767, limits assumed, looked up): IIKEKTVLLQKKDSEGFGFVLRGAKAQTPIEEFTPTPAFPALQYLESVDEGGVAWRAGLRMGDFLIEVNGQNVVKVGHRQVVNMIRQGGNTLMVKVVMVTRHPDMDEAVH

[28] = target: SNX27, Q96L92

B1: FAM110B, Q8TC76 (peptide)
chain: ARESQKVSHV
For B1, the pKd [1] was “below the threshold”, the pKd [2] was “below the threshold” and the pKd [3] was 3.62. For the same binder, the pKd [4] was 4.24, the pKd [5] was 4.06 and the pKd [6] was 4.31. For the same binder, the pKd [7] was 3.8, the pKd [8] was “below the threshold” and the pKd [9] was “below the threshold”. The pKd [10] was “below the threshold”, the pKd [11] was “below the threshold” and the pKd [12] was 4.32. The pKd [13] was 4.1, the pKd [14] was “below the threshold” and the pKd [15] was 4.05. The pKd [16] was “below the threshold”, the pKd [17] was “below the threshold” and the pKd [18] was “below the threshold”. It also gave a pKd [19] of 4.87, a pKd [20] of 3.66 and a pKd [21] of 5.28. The pKd [22] was “below the threshold”, the pKd [23] was “below the threshold” and the pKd [24] was “below the threshold”. The pKd [25] was “below the threshold”, the pKd [26] was “below the threshold” and the pKd [27] was “below the threshold”. The pKd [28] was 4.42.

B2: NCF1, P14598 (peptide)
chain: STKRKLASAV
For B2, the pKd [1] was “below the threshold”, the pKd [2] was “below the threshold” and the pKd [3] was “below the threshold”. For the same binder, the pKd [4] was 4.16, the pKd [5] was “below the threshold” and the pKd [6] was “below the threshold”. The pKd [7] was 3.65, the pKd [8] was “below the threshold” and the pKd [9] was “below the threshold”. For the same binder, the pKd [10] was “below the threshold”, the pKd [11] was “below the threshold” and the pKd [12] was “below the threshold”. For the same binder, the pKd [13] was “below the threshold”, the pKd [14] was “below the threshold” and the pKd [15] was “below the threshold”. The pKd [16] was “below the threshold”, the pKd [17] was “below the threshold” and the pKd [18] was “below the threshold”. For the same binder, the pKd [19] was 5.44, the pKd [20] was 3.99 and the pKd [21] was 5.35. The pKd [22] was “below the threshold”, the pKd [23] was “below the threshold” and the pKd [24] was “below the threshold”. For the same binder, the pKd [25] was “below the threshold”, the pKd [26] was “below the threshold” and the pKd [27] was “below the threshold”. The pKd [28] was “below the threshold”.

B3: FZD2, Q14332 (peptide)
chain: TNSRHGETTV
B3 was tested, and the pKd [1] was “below the threshold”, the pKd [2] was “below the threshold” and the pKd [3] was 3.78. It also gave a pKd [4] of 4.81, a pKd [5] of 4.85 and a pKd [6] of 3.54. The pKd [7] was 3.56, the pKd [8] was “below the threshold” and the pKd [9] was “below the threshold”. The pKd [10] was “below the threshold”, the pKd [11] was “below the threshold” and the pKd [12] was 4.41. The pKd [13] was “below the threshold”, the pKd [14] was “below the threshold” and the pKd [15] was “below the threshold”. The pKd [16] was “below the threshold”, the pKd [17] was “below the threshold” and the pKd [18] was 4.6. For the same binder, the pKd [19] was 4.59, the pKd [20] was 3.6 and the pKd [21] was 5.11. For the same binder, the pKd [22] was “below the threshold”, the pKd [23] was “below the threshold” and the pKd [24] was 3.92. For the same binder, the pKd [25] was “below the threshold”, the pKd [26] was “below the threshold” and the pKd [27] was “below the threshold”. The pKd [28] was 5.64.

— PMC9482650, “Quantitative fragmentomics allow affinity mapping of interactomes” (Nature Communications, 2022)
